T1: human CD20 (human, UniProt P11836 1-297)
T1 sequence (looked up): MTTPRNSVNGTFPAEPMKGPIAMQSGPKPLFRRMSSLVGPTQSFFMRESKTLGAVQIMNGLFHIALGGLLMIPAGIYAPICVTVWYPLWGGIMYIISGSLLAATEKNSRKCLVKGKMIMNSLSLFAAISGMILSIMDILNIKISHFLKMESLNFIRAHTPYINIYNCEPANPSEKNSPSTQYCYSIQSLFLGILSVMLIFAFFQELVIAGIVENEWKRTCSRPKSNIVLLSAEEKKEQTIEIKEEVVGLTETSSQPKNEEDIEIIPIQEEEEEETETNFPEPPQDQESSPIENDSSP


Columns and labels:
human CD20 [1] = molecular target: T1, human CD20; experiment: cell-based or functional assay
human CD20 [2] = molecular target: T1, human CD20; experiment: cell-based or functional assay; remark: listed apart in the source
human CD20 [3] = molecular target: T1, human CD20; experiment: cell-based or functional assay; remark: listed apart in the source
human CD20 [4] = molecular target: T1, human CD20; experiment: cell-based or functional assay; remark: listed apart in the source
human CD20 [5] = molecular target: T1, human CD20; experiment: flow cytometry on human CD20 positive Ramos cells
human HER2 = human HER2 (human, UniProt P04626 23-1255); experiment: cell-based or functional assay
[6] = molecular target: T2, human TCR/CD3 complex on purified primary human T cells (human); experiment: flow cytometry on primary human T cells
T2 construct: Natural complex on T cells isolated from buffy coats of healthy donors; also called hu T cells; purified primary T cells

human CD20 [7] = molecular target: T1, human CD20; experiment: cell-based or functional assay; remark: listed apart in the source

T2 sequence (delta, as listed by the source limits assumed, chain 1 of 4): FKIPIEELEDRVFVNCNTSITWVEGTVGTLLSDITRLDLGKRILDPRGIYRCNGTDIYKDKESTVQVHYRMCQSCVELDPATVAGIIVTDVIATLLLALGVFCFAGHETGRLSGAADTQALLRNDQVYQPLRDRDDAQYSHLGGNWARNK
T2 sequence (gamma, as listed by the source limits assumed, chain 2 of 4): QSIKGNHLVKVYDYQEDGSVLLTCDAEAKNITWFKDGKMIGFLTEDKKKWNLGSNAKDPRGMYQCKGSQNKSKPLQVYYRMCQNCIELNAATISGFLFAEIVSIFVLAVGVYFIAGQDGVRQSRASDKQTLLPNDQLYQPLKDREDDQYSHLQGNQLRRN
T2 sequence (epsilon, as listed by the source limits assumed, chain 3 of 4): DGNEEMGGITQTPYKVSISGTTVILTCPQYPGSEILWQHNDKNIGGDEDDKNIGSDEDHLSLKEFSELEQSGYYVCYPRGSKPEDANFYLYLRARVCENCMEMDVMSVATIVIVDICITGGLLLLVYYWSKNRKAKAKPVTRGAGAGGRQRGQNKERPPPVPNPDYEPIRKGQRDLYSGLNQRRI
T2 sequence (zeta, as listed by the source limits assumed, chain 4 of 4): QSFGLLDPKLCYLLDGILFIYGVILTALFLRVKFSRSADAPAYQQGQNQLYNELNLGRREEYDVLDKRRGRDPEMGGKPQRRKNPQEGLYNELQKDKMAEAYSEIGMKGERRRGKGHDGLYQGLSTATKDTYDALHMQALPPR

| Binder | % lysis (% dead cells at 500 nM Nanobody minus no Nanobody control), Ramos killing assay, E:T 10:1 (human CD20 [1]) | Average IC50 (M), flow cytometry based primary human T cell mediated Ramos killing assay, E:T 10:1 (human CD20 [1]) | Average IC50 (M), xCELLigence based human T cell mediated CHO-K1 CD20 killing assay, E:T 30:1, 44 h (human CD20 [2]) | EC50 (human CD20 [5]) | also measured |
| --- | --- | --- | --- | --- | --- |
| T017000061 (bispecific antibody) EVQLVESGGGLVQPGGSLRLSCTFSGGTFSSYTMGWFRQAPGKEREFVAEVRWGGVTTYSNSLKDRFSISEDSVKNAVYLQMNSLKPEDTAVYYCAAVRQMYMTVVPDYWGQGTLVTVSSGGGGSGGGGSGGGGSGGGGSGGGGSGGGGSGGGGSEVQLVESGGGLVQGGGSLSLSCAASGRTFSSYAMAWFRQPPGKEREFVASISWSGENTNYRNSVKGRFTISRDNAKNTVYLQMNSLKPEDTAVYYCAAKIAKTYPDNWYWTKSNNYNYWGQGTLVTVSSGAADYKDHDGDYKDHDIDYKDDDDKGAAHHHHHH | 13% | 2.9e-08 M | – | – | – |
| T017000053 (bispecific antibody, Bispecific Nanobody construct with tags, expressed in Pichia; also called 20CD019C07-35GS-T0170060E11-FLAG3-HIS6; CD20xCD3 (cluster B)) EVQLVESGGGLVQPGGSLRLSCTFSGGTFSSYTMGWFRQAPGKEREFVAEVRWGGVTTYSNSLKDRFSISEDSVKNAVYLQMNSLKPEDTAVYYCAAVRQMYMTVVPDYWGQGTLVTVSSGGGGSGGGGSGGGGSGGGGSGGGGSGGGGSGGGGSEVQLVESGGGLVQPGGSLRLSCAASGDIYKSFDMGWYRQAPGKQRDLVAVIGSRGNNRGRTNYADSVKGRFTISRDGTGNTVYLLMNKLRPEDTAIYYCNTAPLVAGRPWGRGTLVTVSSGAADYKDHDGDYKDHDIDYKDDDDKGAAHHHHHH | 22% | 7e-09 M | 2.81e-10 M | 1.8 nM | EC50 (M) (title: IC50), T cell dependent B-cell (Ramos) killing assay (human CD20 [3]): 1.8e-09 M; EC50 (M) of IFN-γ secretion by human T cells (ELISA, 72 h) in the xCELLigence based CHO-K1 human CD20 killing assay (human CD20 [4]): 9.1e-10 M |
| T017000056 (bispecific antibody) EVQLVESGGGLVQPGGSLRLSCTFSGGTFSSYTMGWFRQAPGKEREFVAEVRWGGVTTYSNSLKDRFSISEDSVKNAVYLQMNSLKPEDTAVYYCAAVRQMYMTVVPDYWGQGTLVTVSSGGGGSGGGGSGGGGSGGGGSGGGGSGGGGSGGGGSEVQLVESGGGAVQPGGSLRLSCAASGIRISRNMMGWFRQAPGKQRDLVARITPGGDTYYVDSVKGRFSISKDNAKNTVYLQMNSLKPEDTAVYYCNSYSTLGSWGQGTLVTVSSGAADYKDHDGDYKDHDIDYKDDDDKGAAHHHHHH | 4% | 1.5e-08 M | – | – | – |
| T017000040 (bispecific antibody, Bispecific Nanobody construct with tags, expressed in Pichia; also called T0170060E11-35GS-20CD019C07-FLAG3-HIS6; CD3xCD20 (cluster B)) EVQLVESGGGLVQPGGSLRLSCAASGDIYKSFDMGWYRQAPGKQRDLVAVIGSRGNNRGRTNYADSVKGRFTISRDGTGNTVYLLMNKLRPEDTAIYYCNTAPLVAGRPWGRGTLVTVSSGGGGSGGGGSGGGGSGGGGSGGGGSGGGGSGGGGSEVQLVESGGGLVQPGGSLRLSCTFSGGTFSSYTMGWFRQAPGKEREFVAEVRWGGVTTYSNSLKDRFSISEDSVKNAVYLQMNSLKPEDTAVYYCAAVRQMYMTVVPDYWGQGTLVTVSSGAADYKDHDGDYKDHDIDYKDDDDKGAAHHHHHH | 29% | 6.8e-09 M | 4.89e-10 M | 32 nM | – |
| T017000101 (bispecific antibody) EVQLVESGGGLVQAGGSLRLSCAASGITFSINTMGWYRQAPGKQRELVALISSIGDTYYADSVKGRFTISRDNAKNTVYLQMNSLKPEDTAVYYCKRFRTAAQGTDYWGQGTLVTVSSGGGGSGGGGSGGGGSGGGGSGGGGSGGGGSGGGGSEVQLVESGGGPVQAGGSLRLSCAASGRTYRGYSMGWFRQAPGKEREFVAAIVWSGGNTYYEDSVKGRFTISRDNAKNTMYLQMTSLKPEDSATYYCAAKIRPYIFKIAGQYDYWGQGTLVTVSSGAADYKDHDGDYKDHDIDYKDDDDKGAAHHHHHH | – | – | – | – | IC50 (M), xCELLigence based cytotoxicity (readout 18 h), MCF-7, E/T 15:1 (human HER2): 1.1e-10 M; IC50 (M), xCELLigence based cytotoxicity (readout 18 h), SKBR3, E/T 15:1 (human HER2): 2.6e-11 M |
| T017000036 (bispecific antibody, Bispecific Nanobody construct with tags, expressed in Pichia; also called T0170117G03-35GS-20CD019C07-FLAG3-HIS6; CD3xCD20 (cluster A)) EVQLVESGGGPVQAGGSLRLSCAASGRTYRGYSMGWFRQAPGKEREFVAAIVWSGGNTYYEDSVKGRFTISRDNAKNTMYLQMTSLKPEDSATYYCAAKIRPYIFKIAGQYDYWGQGTLVTVSSGGGGSGGGGSGGGGSGGGGSGGGGSGGGGSGGGGSEVQLVESGGGLVQPGGSLRLSCTFSGGTFSSYTMGWFRQAPGKEREFVAEVRWGGVTTYSNSLKDRFSISEDSVKNAVYLQMNSLKPEDTAVYYCAAVRQMYMTVVPDYWGQGTLVTVSSGAADYKDHDGDYKDHDIDYKDDDDKGAAHHHHHH | 26% | 5.5e-09 M | 1.04e-09 M | 21 nM | EC50 [6]: 35 nM |
| T017000016 (bispecific antibody, Bispecific Nanobody construct with tags, expressed in Pichia; also called 20CD019C07-35GS-T0170033G03-FLAG3-HIS6; CD20xCD3 (cluster C)) EVQLVESGGGLVQPGGSLRLSCTFSGGTFSSYTMGWFRQAPGKEREFVAEVRWGGVTTYSNSLKDRFSISEDSVKNAVYLQMNSLKPEDTAVYYCAAVRQMYMTVVPDYWGQGTLVTVSSGGGGSGGGGSGGGGSGGGGSGGGGSGGGGSGGGGSEVQLVESGGGSVQAGGSLRLSCAASGRTFSTNPMGWFRQVPGKERELIAAVRWADGNTFYADSVKGRFTISRDNAKKTVYLQMNSLKSEDTATYYCAAGRPWSAYHSPAEYVHWGQGTLVTVSSGAADYKDHDGDYKDHDIDYKDDDDKGAAHHHHHH | 4% | 9.2e-09 M | 6.81e-12 M | 1.5 nM | – |
| T017000100 (bispecific antibody) EVQLVESGGGPVQAGGSLRLSCAASGRTYRGYSMGWFRQAPGKEREFVAAIVWSGGNTYYEDSVKGRFTISRDNAKNTMYLQMTSLKPEDSATYYCAAKIRPYIFKIAGQYDYWGQGTLVTVSSGGGGSGGGGSGGGGSGGGGSGGGGSGGGGSGGGGSEVQLVESGGGLVQAGGSLRLSCAASGITFSINTMGWYRQAPGKQRELVALISSIGDTYYADSVKGRFTISRDNAKNTVYLQMNSLKPEDTAVYYCKRFRTAAQGTDYWGQGTLVTVSSGAADYKDHDGDYKDHDIDYKDDDDKGAAHHHHHH | – | – | – | – | IC50 (M), xCELLigence based cytotoxicity (readout 18 h), MCF-7, E/T 15:1 (human HER2): 6.9e-11 M; IC50 (M), xCELLigence based cytotoxicity (readout 18 h), SKBR3, E/T 15:1 (human HER2): 9.5e-12 M |
| T017000045 (bispecific antibody) EVQLVESGGGSVQAGGSLRLSCAASGRTFSTNPMGWFRQVPGKERELIAAVRWADGNTFYADSVKGRFTISRDNAKKTVYLQMNSLKSEDTATYYCAAGRPWSAYHSPAEYVHWGQGTLVTVSSGGGGSGGGGSGGGGSGGGGSGGGGSGGGGSGGGGSEVQLVESGGGLVQPGGSLRLSCTFSGGTFSSYTMGWFRQAPGKEREFVAEVRWGGVTTYSNSLKDRFSISEDSVKNAVYLQMNSLKPEDTAVYYCAAVRQMYMTVVPDYWGQGTLVTVSSGAADYKDHDGDYKDHDIDYKDDDDKGAAHHHHHH | 0% | – | – | – | – |
| T017000021 (bispecific antibody, Bispecific Nanobody construct with tags, expressed in Pichia; also called T0170033G03-35GS-20CD019C07-FLAG3-HIS6; CD3xCD20 (cluster C)) EVQLVESGGGSVQAGGSLRLSCAASGRTFSTNPMGWFRQVPGKERELIAAVRWADGNTFYADSVKGRFTISRDNAKKTVYLQMNSLKSEDTATYYCAAGRPWSAYHSPAEYVHWGQGTLVTVSSGGGGSGGGGSGGGGSGGGGSGGGGSGGGGSGGGGSEVQLVESGGGLVQPGGSLRLSCTFSGGTFSSYTMGWFRQAPGKEREFVAEVRWGGVTTYSNSLKDRFSISEDSVKNAVYLQMNSLKPEDTAVYYCAAVRQMYMTVVPDYWGQGTLVTVSSGAADYKDHDGDYKDHDIDYKDDDDKGAAHHHHHH | – | – | 1.52e-10 M | 4.7 nM | – |
| T017000057 (bispecific antibody) EVQLVESGGGLVQPGGSLRLSCTFSGGTFSSYTMGWFRQAPGKEREFVAEVRWGGVTTYSNSLKDRFSISEDSVKNAVYLQMNSLKPEDTAVYYCAAVRQMYMTVVPDYWGQGTLVTVSSGGGGSGGGGSGGGGSGGGGSGGGGSGGGGSGGGGSEVQLVESGGGLVQAGGSLRLSCAASGRSFNMNPLGWFRQSPGKEREFVAAHRWSDGNTYYVDSVKGRFTISRDNAKNTVYLQMNSLKSEDTAVYYCAAGRPWSAFRSPGEYVYWGQGTLVTVSSGAADYKDHDGDYKDHDIDYKDDDDKGAAHHHHHH | 3% | 1.4e-09 M | – | – | – |
| T017000062 (bispecific antibody, Bispecific Nanobody construct with tags, expressed in Pichia; also called 20CD019C07-35GS-T0170117G03-FLAG3-HIS6; CD20xCD3 (cluster A)) EVQLVESGGGLVQPGGSLRLSCTFSGGTFSSYTMGWFRQAPGKEREFVAEVRWGGVTTYSNSLKDRFSISEDSVKNAVYLQMNSLKPEDTAVYYCAAVRQMYMTVVPDYWGQGTLVTVSSGGGGSGGGGSGGGGSGGGGSGGGGSGGGGSGGGGSEVQLVESGGGPVQAGGSLRLSCAASGRTYRGYSMGWFRQAPGKEREFVAAIVWSGGNTYYEDSVKGRFTISRDNAKNTMYLQMTSLKPEDSATYYCAAKIRPYIFKIAGQYDYWGQGTLVTVSSGAADYKDHDGDYKDHDIDYKDDDDKGAAHHHHHH | 22% | 3.9e-09 M | 7.88e-10 M | 1.9 nM | IC50 (M), flow cytometry based T cell mediated Ramos killing assay, E:T 1 (human CD20 [7]): 2.5e-08 M; IC50 (M), flow cytometry based T cell mediated Ramos killing assay, E:T 2 (human CD20 [7]): 7.1e-09 M; IC50 (M), flow cytometry based T cell mediated Ramos killing assay, E:T 5 (human CD20 [7]): 8.7e-09 M; IC50 (M), flow cytometry based T cell mediated Ramos killing assay, E:T 10 (human CD20 [7]): 7.3e-09 M; EC50 (M) (title: IC50), T cell dependent B-cell (Ramos) killing assay (human CD20 [3]): 6.4e-10 M; EC50 (M) of IFN-γ secretion by human T cells (ELISA, 72 h) in the xCELLigence based CHO-K1 human CD20 killing assay (human CD20 [4]): 6.2e-10 M; EC50 [6]: 89 nM |

Reference: US20250388672A1 (Ablynx, published 2025)
